Data taken from patent publication US20220323561A1 (ENTEROME S A, published 2022).

Tests used:
[1] = target: T1, HLA-A*0201 molecule expressed on human T2 cells (human); assay: T2 cells (HLA-A*0201), anti-HLA-A2 flow cytometry
T1 construct: also called HLA-A2

[2] = target: T1, HLA-A*0201 molecule expressed on human …; assay: T2 cells (HLA-A*0201), peptide at 100 µM, anti-HLA-A2 flow cytometry
Procedure: (§1) T2 cells (5.104 cells per well) are incubated with decreasing concentrations of peptides from 100 μM to 0.1 μM (4 points: 100 μM, 10 μM, 1 μM, 0.1 μM) in serum-free medium (TexMacs) supplemented with […] of β2 Microglobulin at 37° C. for 16 hours. Cells are then washed two times and marked with the anti-HLA-A2 antibody coupled to PE (clone BB7.2, BD Pharmagen).
(§2) The relative affinity is then determined as follows: […]

[3] = target: T1, HLA-A*0201 molecule expressed on human …; assay: T2 cells (HLA-A*0201), peptide at 10 µM, anti-HLA-A2 flow cytometry
Procedure: as §1, §2

[4] = target: T1, HLA-A*0201 molecule expressed on human …; assay: T2 cells (HLA-A*0201), peptide at 1 µM, anti-HLA-A2 flow cytometry
Procedure: as §1, §2

[5] = target: T1, HLA-A*0201 molecule expressed on human …; assay: T2 cells (HLA-A*0201), peptide at 0.1 µM, anti-HLA-A2 flow cytometry
Procedure: as §1, §2

[6] = target: T1, HLA-A*0201 molecule expressed on human …; assay: T2 cells (HLA-A*0201), peptide titration, anti-HLA-A2 flow cytometry
Procedure: as §1, §2

## LIFEHPERV [CD22-B12]
[1]
  binding result: binds

## AMNSLSLTV [MS4A1-B43]
[1]
  binding result: binds

## VLAFVPLGV [CD37-B15]
[1]
  binding result: binds

## RVFEHPELV [CD22-B13]
[1]
  binding result: binds

## LMIPAGIYA [MS4A1-H3]
[2]
  mean relative fluorescence intensity (HIV peptide = 100): 92.6 % of HIV pol 589-597 at 100 µM
[3]
  mean relative fluorescence intensity (HIV peptide = 100): 35.7 % of HIV pol 589-597 at 100 µM
[4]
  mean relative fluorescence intensity (HIV peptide = 100): 0.9 % of HIV pol 589-597 at 100 µM
[5]
  mean relative fluorescence intensity (HIV peptide = 100): 0 % of HIV pol 589-597 at 100 µM
[6]
  concentration of peptide that induces 20% of HLA-A2 expression: 4.83 µM
  in vitro binding affinity (relative to HIV pol reference peptide): 0.5 ratio to HIV pol 589-597

## YILGGLLMV [MS4A1-B12]
[2]
  mean relative fluorescence intensity (HIV peptide = 100): 42 % of HIV pol 589-597 at 100 µM
[3]
  mean relative fluorescence intensity (HIV peptide = 100): 7.6 % of HIV pol 589-597 at 100 µM
[4]
  mean relative fluorescence intensity (HIV peptide = 100): 1.1 % of HIV pol 589-597 at 100 µM
[5]
  mean relative fluorescence intensity (HIV peptide = 100): 1.2 % of HIV pol 589-597 at 100 µM
[6]
  concentration of peptide that induces 20% of HLA-A2 expression: 31.2 µM
  in vitro binding affinity (relative to HIV pol reference peptide): 3.5 ratio to HIV pol 589-597

## FMPGLLFGA [TNFRSF13C-B33]
[2]
  mean relative fluorescence intensity (HIV peptide = 100): 99.6 % of HIV pol 589-597 at 100 µM
[3]
  mean relative fluorescence intensity (HIV peptide = 100): 15.5 % of HIV pol 589-597 at 100 µM
[4]
  mean relative fluorescence intensity (HIV peptide = 100): 1.3 % of HIV pol 589-597 at 100 µM
[5]
  mean relative fluorescence intensity (HIV peptide = 100): 0 % of HIV pol 589-597 at 100 µM
[6]
  concentration of peptide that induces 20% of HLA-A2 expression: 13.2 µM
  in vitro binding affinity (relative to HIV pol reference peptide): 3.5 ratio to HIV pol 589-597

## ILAFVPLYL [CD37-B12]
[1]
  binding result: binds

## AMNSLSLYI [MS4A1-B4]
[2]
  mean relative fluorescence intensity (HIV peptide = 100): 115 % of HIV pol 589-597 at 100 µM
[3]
  mean relative fluorescence intensity (HIV peptide = 100): 13.1 % of HIV pol 589-597 at 100 µM
[4]
  mean relative fluorescence intensity (HIV peptide = 100): 1.9 % of HIV pol 589-597 at 100 µM
[5]
  mean relative fluorescence intensity (HIV peptide = 100): 0.5 % of HIV pol 589-597 at 100 µM
[6]
  concentration of peptide that induces 20% of HLA-A2 expression: 12.3 µM
  in vitro binding affinity (relative to HIV pol reference peptide): 2.1 ratio to HIV pol 589-597

## FLAFVPLDV [CD37-B14]
[1]
  binding result: binds

## YMNSLSLAL (Printed as YMNSLSLAL) [MS4A1-B42]
[1]
  binding result: binds

## VLFGAPAYL [TNFRSF13C-B13]
[1]
  binding result: binds

## ILIPAGIYL [MS4A1-B3]
[2]
  mean relative fluorescence intensity (HIV peptide = 100): 88.8 % of HIV pol 589-597 at 100 µM
[3]
  mean relative fluorescence intensity (HIV peptide = 100): 87.8 % of HIV pol 589-597 at 100 µM
[4]
  mean relative fluorescence intensity (HIV peptide = 100): 17.8 % of HIV pol 589-597 at 100 µM
[5]
  mean relative fluorescence intensity (HIV peptide = 100): 1.9 % of HIV pol 589-597 at 100 µM
[6]
  concentration of peptide that induces 20% of HLA-A2 expression: 0.7 µM
  in vitro binding affinity (relative to HIV pol reference peptide): 0.1 ratio to HIV pol 589-597

## FLFGAPASA [TNFRSF13C-B11]
[1]
  binding result: binds

## LLFGAPAGV [TNFRSF13C-B12]
[1]
  binding result: binds
